Assay results reported in patent US20040037843A1 (published 2004).
Read-outs that look alike come from different tables or passages of the source.

Assays:
HLA-A*0201 [1] = biological target: HLA-A*0201 (human)
HLA-A*0202 [2] = biological target: HLA-A*0202 (human)
HLA-A*0203 [3] = biological target: HLA-A*0203 (human)
HLA-A*0206 [4] = biological target: HLA-A*0206 (human)
HLA-A*0202 [5] = biological target: HLA-A*0202 (human); test: competition with 125I-labelled standard peptide for purified HLA
HLA-A*0201 [6] = biological target: HLA-A*0201 (human); test: competition with 125I-labeled probe peptide for purified HLA, gel filtration
HLA-A*0203 [7] = biological target: HLA-A*0203 (human); test: as above
HLA-A*0206 [8] = biological target: HLA-A*0206 (human); test: as above
HLA-A*6802 [9] = biological target: HLA-A*6802 (human); test: as above
HLA-A*0203 [10] = biological target: HLA-A*0203 (human); test: inhibition of 125I probe peptide binding to purified HLA
HLA-A*6802 [11] = biological target: HLA-A*6802 (human); test: as above
HLA-A*0201 [12] = biological target: HLA-A*0201 (human); remark: listed apart in the source
HLA-A*0202 [13] = biological target: HLA-A*0202 (human); test: inhibition of 125I probe peptide binding to purified HLA, gel filtration
HLA-A*0201 [14] = biological target: HLA-A*0201 (human); test: inhibition of 125I probe peptide binding to purified HLA
HLA-A*0206 [15] = biological target: HLA-A*0206 (human); test: as above
HLA-A*0203 [16] = biological target: HLA-A*0203 (human); test: competition with 125I probe peptide on purified HLA, gel filtration

Q: How did the IC50 (HLA-A*0201 [1]) turn out when MLLRLSEPAEL [PSA.118 (11-mer MLLRLSEPAEL)] was run?
A: ≤ 200 nM

Q: Which IC50 (HLA-A*0201 [1]) does the source give for MMNDQLMFL [PSM.663] here?
A: ≤ 200 nM

Q: How did the IC50 (HLA-A*0202 [2]) turn out when SLQCVSLHLV [peptide 1418.52 (HuK2.170.V10)] was run?
A: 6.3 nM

Q: And the IC50 (HLA-A*0203 [3])?
A: 2.8 nM

Q: What about the IC50 (HLA-A*0206 [4]) of the same binder?
A: 5.2 nM

Q: How did the IC50 (HLA-A*0201 [1]) turn out when LLLARAASLSL [PAP.6] was run?
A: ≤ 200 nM

Q: For FLTLSVTWIGV [peptide 1419.27, PSA.3.V11], which IC50 (HLA-A*0202 [5]) is on record?
A: 3 nM

Q: Which IC50 (HLA-A*0201 [6]) does the source give for ATFDIESKV [Peptide 1418.30] here?
A: 238 nM

Q: What about the IC50 (HLA-A*0203 [7]) of the same binder?
A: 44 nM

Q: And the IC50 (HLA-A*0206 [8])?
A: 82 nM

Q: What about the IC50 (HLA-A*6802 [9]) of the same binder?
A: 258 nM

Q: Which results are given for FLLFFWLDRSV [Peptide 63.0138 FLLFFWLDRSV (PAP.20)]?
A: IC50 (HLA-A*0203 [10]): 2.8 nM; IC50 (HLA-A*6802 [11]): 364 nM

Q: For LMYSLVHNL [PSM.469], which IC50 (HLA-A*0201 [1]) is on record?
A: ≤ 200 nM

Q: Which results are given for ITLSVGCTGAV [peptide 1418.59 (HuK2.8.T2)]?
A: IC50 (HLA-A*0203 [3]): 40 nM; IC50 (HLA-A*0206 [4]): 206 nM

Q: With LLHETDSAV [PSM.4] as the binder, how does the IC50 (HLA-A*0201 [1]) read?
A: > 200 nM

Q: How did the IC50 (HLA-A*0201 [1]) turn out when ALVLAGGFFL [PSM.25] was run?
A: > 200 nM

Q: For GLLGSTEWA [PSM.427], which IC50 (HLA-A*0201 [1]) is on record?
A: > 200 nM

Q: Which IC50 (HLA-A*0201 [12]) does the source give for KVTEFMLCAGV [peptide 1418.71, HuK2.191.V11] here?
A: 56 nM

Q: For FLTLSVTWIGV [Peptide 63.0186 (PSA.3.V11)], which IC50 (HLA-A*0202 [13]) is on record?
A: 3 nM

Q: LLLARAASLSL [Peptide 63.0136 LLLARAASLSL (PAP.6)] was tested. Which IC50 (HLA-A*0201 [14]) did it give?
A: 8.1 nM

Q: What about the IC50 (HLA-A*0203 [10]) of the same binder?
A: 5.3 nM

Q: What about the IC50 (HLA-A*0206 [15]) of the same binder?
A: 80 nM

Q: KLGSGNDFEV [PSM.514] was tested. Which IC50 (HLA-A*0201 [1]) did it give?
A: > 200 nM

Q: Which IC50 (HLA-A*0201 [1]) does the source give for TLMSAMTNL [PAP.112] here?
A: ≤ 200 nM

Q: Which IC50 (HLA-A*0203 [16]) does the source give for TVSGLQMAV [Peptide 60.0213 TVSGLQMAV (PAP.292.V9)] here?
A: 122 nM
